Experimental data taken from patent US10429300B2, “Surface plasmon resonance approach to monitor protein-ligand interactions” (The Johns Hopkins University, priority 2015, dated 2019).

B1: AaHII: Nav channel-selective α-scorpion toxin from Androctonus australis hector; model toxin (protein)
chain: VKDGYIVDDVNCTYFCGRNAYCNEECTKLKGESGYCQWASPYGNACYCYKLPDHVRTKGPGRCH
B2: CssIV: β-scorpion toxin from Centruroides suffusus suffusus (protein)
chain: KEGYLVNSYTGCKFECFKLGDNDYCLRECRQQYGKGSGGYCYAFGCWCTHLYEQAVVWPLPNKTCN

Tests used:
[1] = biological target: T1, rNav1.2a VSD II paddle peptide (V843A, SEQ ID NO: 2) (Rattus norvegicus, UniProt P04775, V843A); assay: SPR on immobilized rNav1.2a VSD II paddle peptide; format: binding; details: for SPR binding to VSD II paddle peptide: 100 nM toxin, 500 fmol peptide
T1 construct: purchased ProteoGenix; host or cells: chemical synthesis (Fmoc solid phase)
T1 sequence (P04775 832-856 V843A): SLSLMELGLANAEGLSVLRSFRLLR
Description: SPR experiments were performed at 25° C. on a Biacore™ T200 instrument (GE Healthcare) using 150 mM NaCl, 3 mM EDTA, 0.005% surfactant P20, and 10 mM HEPES-NaOH, pH 7.4, for the coupling protocol or 50 mM phosphate, pH 7.2, as running buffer. Neutravidin (Thermo Fisher Scientific) was immobilized on CM5 sensor chips (GE Healthcare) using an amine coupling chemistry. All chemicals were obtained from Sigma-Aldrich. […] In all SPR experiments, nonspecific binding obtained in the control flow cell was subtracted from the signal obtained in the experimental flow cell. For qualitative binding analysis, toxins (100 nM in running buffer containing 0.1% BSA) were injected at a flow rate of 20 μl/min over 2 min. […] In between injections, the surface of the sensor chip was regenerated by injecting 1 M NaCl (15 s at 30 l/min). The bulk signal caused by refractive index differences between the flow buffer and the buffer containing the analyte was systematically excluded from the data-fitting process. It is worth noting that isolating a paddle motif (ligand) can induce conformational changes that can affect toxin (analyte) efficacy. […] Sensorgrams can reveal such ligand heterogeneity by displaying biphasic dissociation curves that cannot be fitted with the frequently used Langmuir model, which assumes a 1:1 stoichiometry of analyte to ligand. To account for a possible heterogeneity of surface sites, we calculated the rate constants and affinity equilibrium dissociation constants (KD) for AaHII by a fit to a heterogeneous ligand model incorporated into the Biacore T200 Evaluation™ software (v1.0). This model assumes the presence of two sites on the ligand that can bind analyte and can be described by these equations in which A represents the analyte and B1/B2 represents the heterogeneous ligand:
(A) Shown are the CD spectra of the rNav1.2a VSD II and IV paddle peptides used in this paper. […] (B) Representative association and dissociation kinetic curves obtained using SPR after the application of varying concentrations of AaHII (15-2,000 nM) over a sensor chip to which 50 fmol of the rNav1.2a VSD IV paddle peptide was linked. Toxin was applied after obtaining a steady baseline. Colored traces represent toxin binding obtained after subtraction of the signal from the control flow cell. […] Toxin concentrations are indicated on the right in a shade of gray corresponding to the sensorgram. (C) Representative SPR traces after the application of 100 nM KTX, AaHI, AaHII, LqqV, BomIV, TsVII, and CssIV over a sensor chip to which the rNav1.2a VSD II (left) or IV (right) paddle peptide (500 fmol) was linked. Toxin was applied after obtaining a steady baseline. (D) Binding capacities of 100 nM α-scorpion toxins AaHI, AaHII, LqqV, the α-like scorpion toxin BomIV, and the β-scorpion toxins TsVII and CssIV to the VSD II and IV paddle motifs using SPR (error bars represent±SEM). Y-axis represents the maximum RUs obtained after toxin application.
Next, the VSD IV peptide was fixed on SPR sensor chips by adding a K-linked biotin group to the C terminus, resulting in a 32-amino acid peptide altogether (SEQ ID NO: 4 which is mutated SEQ ID NO: 3 of FIG. 2A).

rNav1.2a = details: cited from earlier work
[2] = biological target: T2, rNav1.2a VSD IV paddle peptide (R1629A/L1630A, SEQ ID NO: 4) (Rattus norvegicus, UniProt P04775, L1630A/R1629A); assay: SPR on immobilized rNav1.2a VSD IV paddle peptide; format: binding
T2 construct: purchased ProteoGenix; host or cells: chemical synthesis (Fmoc solid phase)
T2 sequence (P04775 1605-1636 R1629A/L1630A): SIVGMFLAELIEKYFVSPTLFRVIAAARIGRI

[3] = biological target: rNav1.2a/Kv2.1 VSD IV chimera R1629A; details: R1629A substitution; read-out: apparent KD; cited from earlier work
Chain of rNav1.2a/Kv2.1 VSD IV chimera R1629A (P04775 1605-1636 R1629A limits assumed): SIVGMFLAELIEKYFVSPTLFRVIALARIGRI

[4] = heterogeneous ligand model, 15-2,000 nM toxin, 50 fmol peptide, n=3, mean±SD
[5] = heterogeneous ligand model, 50 fmol peptide
[6] = heterogeneous ligand model, 50 fmol peptide, n=3, mean±SD

| Molecule | SPR binding to VSD II paddle peptide [1] | SPR effect on VSD II paddle motif ([1]; up to 20 μM toxin) | Kd (rNav1.2a; WT rNav1.2a, read-out: affinity of the toxin for WT rNav1.2a) [nM] | association rate ka1 [2, 4] [M⁻¹ s⁻¹] | association rate ka2 [2, 4] [M⁻¹ s⁻¹] | dissociation rate kd1 [2, 4] [s⁻¹] | dissociation rate kd2 [2, 4] [s⁻¹] | RUmax1 [2, 5] | RUmax2 [2, 5] | high affinity KD1 (kd1/ka1) [2, 6] [nM] | lower affinity KD2 (kd2/ka2) [2, 6] [nM] | Kd [3] [nM] | effect on WT rNav1.2a gating (rNav1.2a; 100 nM toxin) | SPR binding to VSD IV paddle peptide ([2]; 100 nM toxin, 500 fmol peptide) |
| --- | --- | --- | --- | --- | --- | --- | --- | --- | --- | --- | --- | --- | --- | --- |
| B1 | a response was not obtained | not noticed | ~5 | 2330 ± 910 | 38200 ± 4700 | 0.000979 ± 0.00014 | 0.0281 ± 0.0058 | 135 | 23 | 479 ± 241 | 747 ± 203 | 235 ± 24 |  |  |
| B2 | no RUs could be detected |  |  |  |  |  |  |  |  |  |  |  | clearly influences WT rNav1.2a gating | no RUs could be detected |
